From patent US20230203117A1 (published 2023)

Columns and labels:
R5A11 (+Rα) = R5A11 (+Rα) (UniProt Q13651 22-235); test: SPR (Biacore); pre-bound to IL-10Rα
A11 (+Rα) = A11 (+Rα) (UniProt Q13651 22-235); test: SPR (Biacore); pre-bound to IL-10Rα
G3 (+Rα) = test: SPR (Biacore); pre-bound to IL-10Rα
B11 (+Rα) = B11 (+Rα) (UniProt Q13651 22-235); test: SPR (Biacore); pre-bound to IL-10Rα
G3 [1] = test: SPR (Biacore); without IL-10Rα
G3 [2] = test: SPR (Biacore); monomer, without IL-10Rα
A11 = test: SPR (Biacore); monomer, without IL-10Rα
R5A11 = test: SPR (Biacore); monomer, without IL-10Rα
B11 = test: SPR (Biacore); monomer, without IL-10Rα

B1: IL-10Rβ (receptor)
chain: MVPPPENVRMNSVNFKNILQWESPAFAKGNLTFTAQYLSYRIFQDKCMNTTLTECDFSSLSKYGDHTLRVRAEFADEHSDWVNITFCPVDDTIIGPPGMQVEVLADSLHMRFLAPKIENEYETWTMKNVYNSWTYNVQYWKNGTDEKFQITPQYDFEVLRNLEPWTTYCVQVRGFLPDRNKAGEWSEPVCEQTTHDETVPSLNDIFEAQKIEWHWHHHHHH
modifications: biotinylated with BirA ligase on the biotin acceptor peptide
Kd (R5A11 (+Rα)): 100 nM
Kd (A11 (+Rα)): 23 nM
Kd (G3 (+Rα)): 8 nM
Kd (B11 (+Rα)): 65 nM
Kd (G3 [1]): 2400 nM
Kd (G3 [2]): 2400 nM
Kd (A11): 2400 nM
Kd (R5A11): 8900 nM
Kd (B11): 9400 nM
